In the DeepSol protein solubility set:

Assay: soluble on expression in E. coli; label from the status in PepcDB or PDB records

Row | Sequence | soluble on expression in E. coli
1 | MSLTNKWIGALGLLLSGQLMASELVIESWRADDKALWEQKIIPAFEAANPGIKVKFNPVPNVNYTPTLWENLKAGKAGDLITCRPFDDSLALFKAGHLAEITEMAGMENFPSFAQAPWQTDSGAQTFCVPMASVIHGFFYNKKIFNELGLSVPQTREQFFTVLDKVKADGRYIPLSMSGSESWVASELGYQNIGPNYWKGEDGRLALINGQEHLDDSQYVKVFEELARWRAYLGEDGELRDYGTSNELFTSGKAALYVAGSWEIAPFTDKVDFGVMRPPVAKQGDGCFFTDHTDIGMGMNPASKNPQAAMAFLQWLTTPEFAELYTNSLPGFFSLSNHFFDVTNPAAREMMEWRDQCDSTIRVATQILSRGQPKLGDELAEVSQAVLVGKMTPTAAAERLEQGLKRWYAPHQTRKAKEQECQCVEPISPTTRLNTLPVVDIAPVVASDPVPPTEATILSEEGGSHHHHHH | soluble
2 | MSLTPEIPPKNFTPHLPEDYDARISGVLPYYSSFHQETINLVKSLPSSPKIWMDTGCGTGSLINKAIEEFLDTKFLLLDPSESMLEQAKGKLSFYPDGKVEFLKASSTQEFSQELEEKPDVITAIQCHHYLSLEDRSRATRVCYNLLKEGGIYITFENIRPLTEEGVAVGKRYWGKFQSLHGRKEKEIQTHLERFDTEYFPITVEEHLKLLRDTGFRTVELFWYSYMQAGFYCIKEGHHHHHH | soluble
3 | MSLTQRIDFQTDPSRYRHWRVAYDGEIANLYMDVDEQGGLFPGYELKLNSYDLGVDIELADIVQRMRFEHPEVKVVVMQSGKDRVFCAGANIRMLGGASHAHKVNFCKFTNETRNTYEAAEADSGQKYIAAVKGACAGGGYELALACNYIMLTNDSSSSVALPEVPLLAVLPGTGGLTRVTDKRKVRRDLADVFCSVEEGVRGQRAVDWRLVDEIAPNSKFDEVVQERAREFASASVKPSGLTGIALTPLDRRFAEDGSVTYSTVEVVVEREAGRATLTISGPTDAAPDTVDALQAQGAEAWILRAARELDDAILHLRLNERRIGTLVIQTQGDGAAVAAHEALLLENRDHWLANEILQHWKRVLKRVDMTSRSLVAIVEHGSCFAGPLAELLWAVDRSYMMLEEGHHHHHH | not soluble
4 | MSLTRCVLEGMKTKHALRHHMKLHKGIKEYECKECHRRFAQKVNMLKHCKRHTGIKDFMCELCGKTFSERNTMETHKLIHTVGKQWTCSVCDKKYVTEYMLQKHVQLTHDKVEAQSCQLCGTKVSTRASMSRHMRRKHPEVLAVRIDEGHHHHHH | not soluble
5 | MSLTRNRTVALAIIDMQNDFVLPGAPACVEGAMGTVPVIAGLLAKARAEGWMVLHVVRAHRADGSDAEKSREHLFLEGGGLCVAGTPGAEIVAGLEPASGETVLVKTRFSAFMGTECDMLLRRRGVDTLLVSGTQYPNCIRGTAVDAFALDYDVVVVTDACSARTPGVAESNINDMRAMGITCVPLTALDDVLARRPVPSGPPPREGHHHHHH | soluble
6 | MSLTSVKEFPTIKAVRSFVIGGVGSGGDYHNVEGGHWLIDSPISTPCSRWEEYRKSRTSWGINVLGSFFVEIEASDGTVGYATGFGGPPACWLTHQHFERFLIGADPRRTNHLFEQMYRASMFYGRKGLPIAVISVIDLALWDLLGKIRKEPVYQMIGGATKDRLNFYCTGPEPTAAREMGFWGAKVPLPYCPDEGHVGMKKNIEFLRKHREAVGPDFPLMVDCYMSLNVSYTIELAEKCKDLDINWWEECLSPDDTDGFEQIKRAHPTLKFTTGEHEYSRFGFRKLVEGRNLDIIQPDVMWLGGLTELLRVSAMAAAYDIPVVPHASGPYSYHFVMSQPNTPFQEYLANSPDGKSVLPVFGDLFLDEIIPSKGFLTPKDLDQPGFGLTLNPAARAKMIPGEFWVNPAPLKALTSGAPAEEKKEGAVEAVVNKVQELTTSEGHHHHHH | soluble
7 | MSLTSYSYRQSSATSSFGGLGGGSVRFGPGVAFRAPSIHGGSGGRGVSVSSARFVSSSSSGAYGGGYGGVLTASDGLLAGNEKLTMQNLNDRLASYLDKVRALEAANGELEVKIRDWYQKQGPGPSRDYSHYYTTIQDLRDKILGATIENSRIVLQIDNARLAADDFRTKFETEQALRMSVEADINGLRRVLDELTLARTDLEMQIEGLKEELAYLKKNHEEEISTLRGQVGGQVSVEVDSAPGTDLAKILSDMRSQYEVMAEQNRKDAEAWFTSRTEELNREVAGHTEQLQMSRSEVTDLRRTLQGLEIELQSQLSMKAALEDTLAETEARFGAQLAHIQALISGIEAQLGDVRADSERQNQEYQRLMDIKSRLEQEIATYRSLLEGQEDHYNNLSASKEGHHHHHH | not soluble
8 | MSLTTGAAVAFVDTLHDAAVRDLGWLLASPSMLTAVPGAPLARPWPDATGQAAVEAWLAALDAQPGPLHRALDGFRPTRLGRYAECLLEYFLTHGPSLRLVAANLPLRSNGRTLGEVDFLVDTPDGRRLHWEMAVKCYLCAPVRDGASLADFVGPNLVDRFDRKRSRLLDHQLRMGEHDGFARLGYGAPADAQMFIKGWLFHPYGAPVPPVSVEIAPDHPRGFWLTHGQWPAWAAAQRDGAAWSVLPRLAWLAPRRAVAGAGVEPEPLASALELPAVLATRQTPDMIAIHEKGGDGTWRETARGFVVPDDWPARAQAFAAQDHEGHHHHHH | soluble
9 | MSLTTLTTALKAGPEAPAILHRCRELVAPALAEAVGGMHPWMREMADYALGRGAAGGAPAAHSQGKGVRQALAVLGAEAAGGPAEAGVPAAVAVELVHTFSLLHDDIMDGDAMRRGRPALWKAYGTGPAVLAGDALFALAVQTLTTASAPGAAHRLSAALGDLVRGQADDLLFAHRPWTGPEAVSVAEYEAMAEHKTGSLLGCALALGAHLAGAPEETAAVLDRTGRHLGVAFQIVDDLLGIWGDPAVTGKPVHGDLRQGKKTFPVLAALATPSGSALEGLLTARDDTAVVRAAAVVEQAGGRSAALREARRHLTVAHGLLASVQPAPRPAADLRTLLSALSRRTIEGHHHHHH | soluble
10 | MSLTTMAEHFLTLLVVPAIKKDYGSQEDFTQVWNTTMKGLKCCGFTNYTDFEDSPYFKENSAFPPFCCNDNVTNTANETCTKQKAHDQKVEGCFNQLLYDIRTNAVTVGEGHHHHHH | not soluble
11 | MSLTTVMSGVTTLMRAPIGSIRESEGGRDFIRNVFEESVQIMRVLGAPVKENITEEHMKTMDKISYNMKSSMQRDMEKGSSVEGTHLQGYLLDVAKQFSIEAPLLGAVYQNLKVYEEMTLNRSAIELDEGHHHHHH | soluble
12 | MSLTVLILRCIMVKSTTRKSAKSDRRRYNRIARFYDLFETPMELMNFRKWRKMLFDLIKAEKGLVLEIGAGTGKNIPHYPSNVVALDISEKMLERAVRRAKESGKKVDFLLADAENLPFRSNSFDVVFTTFVFCSVDDPVRGLREAFRVLKKGGRAYFLEHMLPKSRFLHPLFNLLNPIFRAFGPEINRRTDENIQRAGFQIVKEYMLFGSVFRLIVAEKPLDSVDEASGYSLKRSESSDSSNFRRFIGQSLLPLRLTQLLREGHHHHHH | not soluble
13 | MSLTWVSVEAKIDYELDPTVLFHLTEENAGDRFYYKKNDNKTSFFGYHAITRFKNDFENKQSIFREWQKYKSDIELIHPSSDKHHLKICGGFQFSMHKSGDEWREFGINHFILPEVLITMENGVSYITYTVKAEQFEIEQFKALIAHLTQNTIDSEFEIGNIKRIEDIYKDEWRDLVKDTIDVLDEHKKIVLARKRLVMFDKNINIPYILQKASQGEHNSYLFVLESQDSIFFSQTPEQLMEVNNGILSTKAVAGTIKRTHQDEVDKENIQAFLNDDKNLNEHRFVVESILNDIAPYVRDITFNETPQILTNDHLYHLYTKIKGQLENDSYIGLLDNLHPTPALGGYPKAEAIEYIEQNEFGTRGLYGAPVGYIDMNDDCEFIVAIRSMLIKKNQATLFAGCGIVKNSDADSEVEETAVKFNPMMKALGVEEYEGHHHHHH | not soluble
14 | MSLVDIHSHIIPGIDDGSNSLETTLNMMSIAKEAGVTKMVATSHYYRGKFENSISVIEKKANELNYTLKEKGVDIDVIPGQEVFIDNYTLKDYKEGIIGTINNTDYMLVEFDMMSLGENAIDTLYELQIKGIKPIIAHPERYTYIQKDIYKINELMDENIYFQVNAGSIEGLFGKTVQKTALKLVEEGVISFIASDAHSAGKRCPGYEKALHDLTKIDKTLAEKFIKNSNLLLENEKIENKVRKLKKKKTFFSFLKEGHHHHHH | soluble
15 | MSLVEKPVVIKFGGTSVRYAFEEALELVAKLHENMKIIVVVSALAGVTDCLLRLAKGDKSALLEIDEIHEELSQELNVQLEHLIHQLKKTINSKSSFPSEKAFIDEIASFGERFSAKLFSEGLKILGITARPVDSKDVLFVKGEFGNAEVEFKKSAQGVDVLYRMLRRGIVPVVTGYYGNLNGFRATFGRGGSDYSATSIASLVNAKAVLIMSDVEGIYTADPKLVPPARLIHYISYKEAKTAAKLGMKVLHPRAIDPVEGKIPVILGKTRDLKFGTLISHESQGIPIVTHKLLENHAEISVVSVKTNIPLPYEVYEEGDLYFKIKTSKDQFLEVLRDVHRRVVENENLHSSHDGELWTWVEGHHHHHH | soluble
16 | MSLVKDIYSESIQIQIAASSMLSENITNATQMVMQCLLGGNKVIACGVSRSYANAQFLVSNLLNRYDLVRPSFPSVLLSLESAVGSSLVFEQPPEELYCHQFNASAKSGDLLIAFAPLGTEKIVLNIISHAVSKEVNVIVLTGSNNDAIQGILADKDLEISIPATKESRILENHLFVINALCELVDQTLFPSAEGGSHHHHHH | soluble
17 | MSLVKTYAFGFPKLGEKREFKRLLENYWKGKISQEELIKGMEELNLWRANLYRENVEIIPSNELSYYDFMLDTTVMVGAIPSRFGEYRGLDTYFEMARGKNALELTKWFNTNYHYLVPELEGENFKLLINRPLEDYKFFKEKGINTVPHVIGLFTFLKLSKAPKRVEEEGLPVIILEKLDTKERLEKFTKALLPVYKELLESLKNEGVNRVHFEEPALVTDLEDYDWEILNEIYSELSKVGVDLGILTYYDSVSDYDKFVNLPVKALHFDLVSNEENLKNIKEKGFPEDKELIAGIINGRQPWRANLREKVKLLEELLKVSANLVVSNSCPLYHLPVTVEPEDELPEGLKERLSFAKEKLREIRLIKEALEGKEEALREVESSEKVMTAVFAQNPEVRRRLASLSEKDFQRELPYKERDKIQRDILKLPLFPTTTIGSFPQTEDVRKMRTAYRTGKISEEEYKNFIKQKIKYAIEVQEDIGLDVLVHGEFERSDMVEYFAIKLDGIATTKHGWVLSYGSRVYRPPIIYGDVSRPAPMTLEEITYAQSLTNKPVKGMLTGPVTILNWSYYREDVPKREIAYQIALALLDEVKDLENAGIKVIQIDEPAFREGAPLKKRDWPEYFDWAVKAFRLASRAKPETQIHTHMCYSEFNEIIEYIYQMDFDVISIEASRSKGEIIEVFEKFKGWDRQIGIGVYDIHSPAIPTKEEMKAIMLRAMKVLPKELLWVNPDCGLKTRRWEEVIPALRNMVDMAKELREEVGVKVEGHHHHHH | soluble
18 | MSLVLLYTPKQKTKNVQTITADILDLDYQGLGVAKINGKTWFIENALPHEKVECRILEDKRQYGHAIVKKWRVKSPERLEPKCAHFMRCGGCQGQHIPIEMQRKAKESALFKRLSKLQSEPISFQPMICGDAWAYRRRVRLSLWFNPSTKQIEMGFRQKNTNDLIPVQSCEVAEPAINYLLPKLTALLEKFSAPKQLGHIELVAADNGVAMLLRYTKNLAEIDRTLLLKFAEQEKLMLFLQSDKGIEQIYGDAPYYQFSDGIKLHFDIRDFIQVNSALNEPMVNTALDWLELSQQDCVLDLFCGMGNFTLPLAKRVKSAVGIEGVFEMVQKAAQNAERNQIKNIEFFQADLDQSFVEQPWANQSFNKILLDPPRSGAAFALNALCELKAEKILYVSCNPATLVRDAEILCNFGYKIEKSAVIDMFPHTGHLESITLFTTKEGHHHHHH | soluble
